B1: scFv OKT3 wild-type (scFv, V domains shown)
VH: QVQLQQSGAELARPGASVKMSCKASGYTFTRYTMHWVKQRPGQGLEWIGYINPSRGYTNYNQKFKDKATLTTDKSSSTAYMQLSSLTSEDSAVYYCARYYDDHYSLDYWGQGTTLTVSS
VL: QIVLTQSPAIMSASPGEKVTMTCSASSSVSYMNWYQQKSGTSPKRWIYDTSKLASGVPAHFRGSGSGTSYSLTISGMEAEDAATYYCQQWSSNPFTFGSGTKLEIN
notes: also called OKT3 single chain variable fragment
B2: scFv OKT3 E129AzK (scFv, V domains shown)
VH: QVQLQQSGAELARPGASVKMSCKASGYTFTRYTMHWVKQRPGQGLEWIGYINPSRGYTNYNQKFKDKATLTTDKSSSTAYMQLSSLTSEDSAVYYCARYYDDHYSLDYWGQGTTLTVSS
VL: B1 VL
notes: also called scFv OKT3 E129AzK variant

Target: T1, CD3 receptor (CD3ε subunit of the T cell receptor complex) (Homo sapiens, UniProt P07766)
T1 construct: also called CD3 antigen; CD3 receptors
Experiment: flow cytometry on cells
Details: one partner purified

T1 sequence (P07766 23-207, one chain of several): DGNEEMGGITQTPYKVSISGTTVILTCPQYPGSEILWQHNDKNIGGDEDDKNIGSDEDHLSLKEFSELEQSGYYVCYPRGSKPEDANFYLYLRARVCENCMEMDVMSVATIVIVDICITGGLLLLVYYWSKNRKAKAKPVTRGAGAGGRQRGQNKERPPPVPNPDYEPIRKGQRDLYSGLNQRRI

| Binder | binding result |
| --- | --- |
| B1 | binds |
| B2 | binds |
